Results as given in US20120009190A1 (Amgen, published 2012).

What was measured:
[1] = molecular target: mouse IL-17RA (IL-17 receptor) on ST-2 cells (mouse) (UniProt Q60943); test: cell-based or functional assay
[2] = molecular target: human IL-17RA on normal human foreskin fibroblasts (HFF) (human) (UniProt Q96F46); test: cell-based or functional assay
[3] = molecular target: T1, IL-17RA FN1 domain fused to the Gal4 DNA binding domain (pGBKT7) (yeast, UniProt P04386 1-147, limits assumed); test: yeast two-hybrid, growth on -Leu/-Trp/-Ade
T1 construct: Only the FN1 domain was used
Description: The IL-17RA ECD, FN2, FN2/linker and FN1 domains were fused to the Ga14 DNA binding domain (BD) or activation domain (AD) in the Pgbkt7 and Pgadat7 yeast expression plasmids (BD Clontech). S. cerevisiae were transformed by standard methods, and growth on Leu-Trp-deficient plates or Leu-Trp-Ade-deficient plates was evaluated by colony counting. CARMA1 (provided by X. Lin, MD Anderson Cancer Center, Houston Tex.) was used a positive control.
To obtain the data presented Table 1, full length (FL) IL-17RA or the FN1, FN2/linker or FN2 domains were fused to the yeast Ga14 DNA binding domain (BD) or activation domain (AD) in the pGBKT7 and pGADT7 plasmids. S. cerevisiae were transformed with the indicated pairs of plasmids and growth on Leu-Trp-deficient plates (selecting for both plasmids) or Leu-Trp-Ade-deficient plates (selecting for each plasmid and an interaction) was evaluated. CARMA1 was a positive control. FL, full length. FN, fibronectin.

[4] = molecular target: T2, huIL-17.Fc (huIL17 with N-terminal flag and huFC (IgG1)) (human, UniProt Q16552 24-155); test: flow cytometry, huIL-17.Fc staining with anti-huIgG-APC
T2 construct: also called IL-17 fused to human Fc; not shown: human IgG1 Fc (huFC)
Description: Cells were incubated with M750 or M177 anti-mouse IL-17RA followed by anti-rat PE (BD Pharmigen). To prepare huIL-17.Fc, a cDNA encoding huIL17, N-terminal flag and huFC (IgG1) was amplified by PCR and cloned into the Pdc409 vector. Secreted IL17.Fc was purified from transfected COS cells over a Protein A column and its concentration determined using a human Fc ELISA. For binding, 293 cells were blocked with anti-human IL-17RA (M202) and stained with huIL17.Fc followed by anti-hulgG-APC (Jackson Immunoresearch, West Grove, Pa.). Data were analyzed on a FACSCalibur with Cell Quest software (BD Biosciences). FRET data were obtained from three channel images using the macro of LSM FRET tool software (Zeiss AIM software, per standard techniques). A minimum of 50 regions of interest at the membrane were assessed for each condition. FRET efficiencies were calculated by the NFRET method and significance determined by t-test.

mouse IL-17RA (IL-17 receptor) on ST-2 cells (mouse), sequence (Q60943 32-864): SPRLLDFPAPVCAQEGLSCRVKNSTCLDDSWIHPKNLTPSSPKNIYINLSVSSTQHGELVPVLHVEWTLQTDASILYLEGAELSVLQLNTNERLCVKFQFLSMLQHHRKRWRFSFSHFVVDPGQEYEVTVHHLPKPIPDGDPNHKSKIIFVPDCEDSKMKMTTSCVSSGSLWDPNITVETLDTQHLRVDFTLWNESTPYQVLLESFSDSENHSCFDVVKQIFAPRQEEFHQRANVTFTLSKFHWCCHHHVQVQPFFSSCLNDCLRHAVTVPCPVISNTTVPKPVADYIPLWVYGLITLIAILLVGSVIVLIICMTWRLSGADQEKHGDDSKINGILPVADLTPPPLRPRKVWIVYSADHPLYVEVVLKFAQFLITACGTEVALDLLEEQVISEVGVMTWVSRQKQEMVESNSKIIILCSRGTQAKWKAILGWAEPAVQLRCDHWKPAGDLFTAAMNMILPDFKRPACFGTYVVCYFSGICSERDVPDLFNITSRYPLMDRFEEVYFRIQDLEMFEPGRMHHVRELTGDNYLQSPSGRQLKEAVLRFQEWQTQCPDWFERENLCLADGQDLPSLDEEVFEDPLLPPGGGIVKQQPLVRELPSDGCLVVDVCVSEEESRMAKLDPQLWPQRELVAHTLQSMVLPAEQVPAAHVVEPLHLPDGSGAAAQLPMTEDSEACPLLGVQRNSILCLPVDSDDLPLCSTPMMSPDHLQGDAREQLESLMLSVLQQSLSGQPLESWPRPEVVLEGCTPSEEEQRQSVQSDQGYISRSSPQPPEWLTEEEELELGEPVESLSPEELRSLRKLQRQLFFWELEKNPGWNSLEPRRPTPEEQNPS
T2 sequence (Q16552 other isoform, or with tags, fused parts or gaps limits assumed): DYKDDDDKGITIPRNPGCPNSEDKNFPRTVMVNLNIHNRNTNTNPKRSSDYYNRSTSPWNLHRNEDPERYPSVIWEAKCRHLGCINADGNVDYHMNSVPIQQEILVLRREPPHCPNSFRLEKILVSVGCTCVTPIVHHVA

## muPLAD-L (murine PLAD/Linker construct, linker and FN2 of mouse IL-17RA) (from UniProt Q60943 184-283) (receptor)
[1]
  IL-6 (ELISA) from ST-2 cells + IL-17A 10 ng/ml, muPLAD-L at 3 ug/ml: 2710 pg/mL
  IL-6 (ELISA) from ST-2 cells + IL-17A 10 ng/ml, muPLAD-L at 3 ug/ml (Example 9): 182 pg/mL
  IL-6 (ELISA) from ST-2 cells + IL-17A 10 ng/ml, muPLAD-L at 10 ug/ml: 2790 pg/mL
  IL-6 (ELISA) from ST-2 cells + IL-17A 10 ng/ml, muPLAD-L at 10 ug/ml (Example 9): 110 pg/mL
  IL-6 (ELISA) from ST-2 cells + IL-17A 10 ng/ml, muPLAD-L at 30 ug/ml: 1880 pg/mL
  IL-6 (ELISA) from ST-2 cells + IL-17A 10 ng/ml, muPLAD-L at 30 ug/ml (Example 9): 110 pg/mL
  IL-6 (ELISA) from ST-2 cells + IL-17A + TNFa 2 ng/ml, muPLAD-L at 3 ug/ml: 7020 pg/mL
  IL-6 (ELISA) from ST-2 cells + IL-17A + TNFa 2 ng/ml, muPLAD-L at 10 ug/ml: 7040 pg/mL
  IL-6 (ELISA) from ST-2 cells + IL-17A + TNFa 2 ng/ml, muPLAD-L at 30 ug/ml: 7180 pg/mL
  KC (Groα) (ELISA) from ST-2 cells + IL-17A 10 ng/ml, muPLAD-L at 3 ug/ml: 5980 pg/mL
  KC (Groα) (ELISA) from ST-2 cells + IL-17A 10 ng/ml, muPLAD-L at 10 ug/ml: 5440 pg/mL
  KC (Groα) (ELISA) from ST-2 cells + IL-17A 10 ng/ml, muPLAD-L at 30 ug/ml: 6230 pg/mL
  KC (Groα) (ELISA) from ST-2 cells + IL-17A + TNFa, muPLAD-L at 3 ug/ml: 5750 pg/mL
  KC (Groα) (ELISA) from ST-2 cells + IL-17A + TNFa, muPLAD-L at 10 ug/ml: 5550 pg/mL
  KC (Groα) (ELISA) from ST-2 cells + IL-17A + TNFa, muPLAD-L at 30 ug/ml: 5500 pg/mL

## muPLAD (murine PLAD construct, FN2 of mouse IL-17RA without the linker) (from UniProt Q60943 205-283) (receptor)
[1]
  IL-6 (ELISA) from ST-2 cells + IL-17A 10 ng/ml, muPLAD at 3 ug/ml: 2240 pg/mL
  IL-6 (ELISA) from ST-2 cells + IL-17A 10 ng/ml, muPLAD at 3 ug/ml (Example 9): 155 pg/mL
  IL-6 (ELISA) from ST-2 cells + IL-17A 10 ng/ml, muPLAD at 10 ug/ml: 2530 pg/mL
  IL-6 (ELISA) from ST-2 cells + IL-17A 10 ng/ml, muPLAD at 10 ug/ml (Example 9): 125 pg/mL
  IL-6 (ELISA) from ST-2 cells + IL-17A 10 ng/ml, muPLAD at 30 ug/ml: 2040 pg/mL
  IL-6 (ELISA) from ST-2 cells + IL-17A 10 ng/ml, muPLAD at 30 ug/ml (Example 9): 108 pg/mL
  IL-6 (ELISA) from ST-2 cells + IL-17A + TNFa 2 ng/ml, muPLAD at 3 ug/ml: 6980 pg/mL
  IL-6 (ELISA) from ST-2 cells + IL-17A + TNFa 2 ng/ml, muPLAD at 10 ug/ml: 6980 pg/mL
  IL-6 (ELISA) from ST-2 cells + IL-17A + TNFa 2 ng/ml, muPLAD at 30 ug/ml: 6980 pg/mL
  KC (Groα) (ELISA) from ST-2 cells + IL-17A 10 ng/ml, muPLAD at 3 ug/ml: 6190 pg/mL
  KC (Groα) (ELISA) from ST-2 cells + IL-17A 10 ng/ml, muPLAD at 10 ug/ml: 6130 pg/mL
  KC (Groα) (ELISA) from ST-2 cells + IL-17A 10 ng/ml, muPLAD at 30 ug/ml: 6100 pg/mL
  KC (Groα) (ELISA) from ST-2 cells + IL-17A + TNFa, muPLAD at 3 ug/ml: 6150 pg/mL
  KC (Groα) (ELISA) from ST-2 cells + IL-17A + TNFa, muPLAD at 10 ug/ml: 6460 pg/mL
  KC (Groα) (ELISA) from ST-2 cells + IL-17A + TNFa, muPLAD at 30 ug/ml: 6300 pg/mL

B1: IL-17R PLAD-GSS-FH (recombinant human IL-17R PLAD without the linker, first generation construct) (receptor)
chain: PNITVETLEAHQLRVSFTLWNESTHYQILLTSFPHMENHSCFEHMHHIPAPRPEEFHQRSNVTLTLRNLKGCCRHQVQ
[2]
  GROα (ELISA) from HFF + 5 ng/mL huIL-17A, IL-17R PLAD-GSS-FH at 0.032 ug/mL: 460 pg/mL
  GROα (ELISA) from HFF + 5 ng/mL huIL-17A, IL-17R PLAD-GSS-FH at 0.16 ug/mL: 463 pg/mL
  GROα (ELISA) from HFF + 5 ng/mL huIL-17A, IL-17R PLAD-GSS-FH at 0.8 ug/mL: 471 pg/mL
  GROα (ELISA) from HFF + 5 ng/mL huIL-17A, IL-17R PLAD-GSS-FH at 4 ug/mL: 420 pg/mL
  GROα (ELISA) from HFF + 5 ng/mL huIL-17A, IL-17R PLAD-GSS-FH at 20 ug/mL: 363 pg/mL
  GROα (ELISA) from HFF + 5 ng/mL huIL-17A, IL-17R PLAD-GSS-FH at 100 ug/mL: 300 pg/mL

B2: IL-17R PLAD-mod-GSS-FH (recombinant human IL-17R PLAD without the linker, second generation construct) (receptor)
chain: PNITVETLEAHQLRVSFTLWNESTHYQILLTSFPHMENHSCFEHMHHIPAPRPEEFHQRSNVTLTLRNLKGCCRHQVQIQPFFSSCLNDCLRHSATVSCPEMPDTPEPIPDGSSDYKDDDDKGSSHHHHHH
[2]
  GROα (ELISA) from HFF + 5 ng/mL huIL-17A, IL-17R PLAD-mod-GSS-FH at 0.032 ug/mL: 467 pg/mL
  GROα (ELISA) from HFF + 5 ng/mL huIL-17A, IL-17R PLAD-mod-GSS-FH at 0.16 ug/mL: 486 pg/mL
  GROα (ELISA) from HFF + 5 ng/mL huIL-17A, IL-17R PLAD-mod-GSS-FH at 0.8 ug/mL: 484 pg/mL
  GROα (ELISA) from HFF + 5 ng/mL huIL-17A, IL-17R PLAD-mod-GSS-FH at 4 ug/mL: 499 pg/mL
  GROα (ELISA) from HFF + 5 ng/mL huIL-17A, IL-17R PLAD-mod-GSS-FH at 20 ug/mL: 440 pg/mL
  GROα (ELISA) from HFF + 5 ng/mL huIL-17A, IL-17R PLAD-mod-GSS-FH at 100 ug/mL: 411 pg/mL

B3: IL-17R PLAD-LINKER-GSS-FH (recombinant human IL-17R PLAD-linker, first generation construct) (receptor)
chain: DCEHARMKVTTPCMSSGSLWDPNITVETLEAHQLRVSFTLWNESTHYQILLTSFPHMENHSCFEHMHHIPAPRPEEFHQRSNVTLTLRNLKGCCRHQVQ
[2]
  GROα (ELISA) from HFF + 5 ng/mL huIL-17A, IL-17R PLAD-LINKER-GSS-FH at 0.032 ug/mL: 437 pg/mL
  GROα (ELISA) from HFF + 5 ng/mL huIL-17A, IL-17R PLAD-LINKER-GSS-FH at 0.16 ug/mL: 541 pg/mL
  GROα (ELISA) from HFF + 5 ng/mL huIL-17A, IL-17R PLAD-LINKER-GSS-FH at 0.8 ug/mL: 460 pg/mL
  GROα (ELISA) from HFF + 5 ng/mL huIL-17A, IL-17R PLAD-LINKER-GSS-FH at 4 ug/mL: 381 pg/mL
  GROα (ELISA) from HFF + 5 ng/mL huIL-17A, IL-17R PLAD-LINKER-GSS-FH at 20 ug/mL: 310 pg/mL
  GROα (ELISA) from HFF + 5 ng/mL huIL-17A, IL-17R PLAD-LINKER-GSS-FH at 100 ug/mL: 315 pg/mL

B4: IL-17RA FN1 domain fused to the Gal4 activation domain (pGADT7) (other, not shown: large carriers)
chain: TPSSPKNIYINLSVSSTQHGELVPVLHVEWTLQTDASILYLEGAELSVLQLNTNERLCVKFQFLSMLQHHRKRWRFSFSHFVVDPGQEYEVTVHHLPKPIPDGDPNHKSKIIFVP
notes: Only the FN1 domain was used; Species is inferred as mouse
[3]
  binding result: no binding

B5: FN2 domain construct of IL-17RA (lacking FN1 and the linker), expressed on cells (receptor)
chain: PNITVETLDTQHLRVDFTLWNESTPYQVLLESFSDSENHSCFDVVKQIFAPRQEEFHQRANVTFTLSKFHWCCHHHVQV
notes: not shown: transmembrane region, cytoplasmic part and any tag of the construct
[4]
  binding result: no binding
